The target in this assay is L-lysine α-oxidase precursor from Trichoderma viride (Trichoderma viride). In words: crystal structure; prLysOX crystals by sitting-drop vapor diffusion at 20 °C, 0.1 M Tris-HCl pH 8.0-9.0, 2-2.1 M ammonium dihydrogen phosphate; space group C222(1); one molecule in the asymmetric unit, dimer formed by crystallographic two-fold symmetry; 1.97 Å.

Take “L-lysine α-oxidase precursor from Trichoderma viride (enzyme)”: the stoichiometry N was 2.

Broadly, the stoichiometry N is the number of molecules, sites or subunits per partner or assembly.
